T1: GajA of the Gabija system from Bacillus cereus VD045 (Bacillus cereus VD045, UniProt J8H9C1 1-578)
T1 sequence (looked up): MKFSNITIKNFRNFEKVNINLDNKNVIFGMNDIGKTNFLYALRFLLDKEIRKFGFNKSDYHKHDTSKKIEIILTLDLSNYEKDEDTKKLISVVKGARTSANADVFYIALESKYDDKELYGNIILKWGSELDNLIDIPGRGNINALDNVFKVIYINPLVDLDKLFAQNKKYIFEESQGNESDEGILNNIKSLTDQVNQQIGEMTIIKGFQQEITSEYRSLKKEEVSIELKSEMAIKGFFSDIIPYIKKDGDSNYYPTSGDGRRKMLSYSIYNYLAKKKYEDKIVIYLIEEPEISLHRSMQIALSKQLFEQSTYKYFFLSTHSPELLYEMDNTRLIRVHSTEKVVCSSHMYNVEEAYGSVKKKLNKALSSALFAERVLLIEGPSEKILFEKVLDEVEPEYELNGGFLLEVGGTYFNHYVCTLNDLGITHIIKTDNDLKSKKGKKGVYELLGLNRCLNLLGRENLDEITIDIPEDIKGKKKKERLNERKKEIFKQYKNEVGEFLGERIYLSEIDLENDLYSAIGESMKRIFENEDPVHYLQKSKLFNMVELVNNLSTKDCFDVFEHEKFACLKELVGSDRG

B1: GajB of the Gabija system from Bacillus cereus VD045 (natural protein, UniProt J8HQ06 1-494, looked up)
chain: MSREQIIKDGGNILVTAGAGSGKTTILVSKIEADLKENKTHYSIAAVTFTNKAAKEIEGRLGYSSRGNFIGTNDGFVESEIIRPFIKDAFGNDYPDNFTAEYFDNQFASYDKGLQVLKYQNILGTYSNPKKNFKFQLALDILKKSLVARQYIFSKYFKIFIDEYQDSDKDMHNLFMYLKDQLKIKLFIVGDPKQSIYIWRGAEPENFNGLIENSTDFNKYHLTSNFRCCQDIQNYSNLFNEETRSLIKEKNEVQNVISIADDMPISDILLKLTEEKQVLNIEAELVILVRRRNQAIEIMKELNEEGFNFIFIPQTPLDRATPNATLLKEVIKYVKNDRYSIYDLAAEIVGNLSSREIKEIQKIINELLVPNINQVLINQVLINLFAKLEITLDTREITAFTEVMMTNEFDIAFDTNEYLHKIFTVHSAKGLEFNQVIITASDYNVHYNRDTNEHYVATTRAKDKLIVIMDNKKYSDYIETLMKELKIKNIIKSI
B2: Tad2 from phage SPO1 (construct for crystallization) (natural protein, Bacillus phage SPO1)
chain: MKTKMSFGEALEVLKQGMQVYRSGWNGKNMFLFLKSSDALASDFGFGFGEYINEPVFGNIIFIKTADNKIHAWVPSQTDVLAEDWDIVS

How the values were obtained:
[1] = target: T1, GajA of the Gabija system from Bacillus …; assay: reconstitution of the complex from purified proteins
crystal structure = target: the molecule itself; assay: crystal structure

Binder	binding result [1]	stoichiometry N (crystal structure)
B1	binds	
B2		4
